From patent US8129345B2, “MUC1-IκB kinase complexes and their activities” (Dana-Farber Cancer Institute, Inc., priority 2006, dated 2012)

Molecular target: IKKγ (Homo sapiens, UniProt Q9Y6K9)
Experiment: In vitro GST pull-down binding to IKKγ
Protocol: FIG. 5B is a pair of photographs of immunoblots showing an interaction between MUC1-CD and IKKγ. GST- and GST-IKKγ bound to glutathione beads were incubated with purified MUC1-CD. The precipitates were immunoblotted (IB) with anti-MUC1-C antibodies. Commassie blue staining of the gel was performed to confirm that equal amounts of GST- and GST-IKKγ were used in the experiment. The molecular weights of proteins (as indicated on the left of the photographs) are expressed as kilodaltons (kDa).
FIG. 5C is a pair of photographs of immunoblots. GST- and the indicated GST-MUC1-CD fusion proteins or fragments bound to glutathione beads were incubated with purified IKKγ. The precipitates were immunoblotted (IB) with anti-IKKγ antibody. Commassie blue staining of the gel was performed to confirm that equal amounts of GST- and GST-MUC1 proteins were used in the experiment. The molecular weights of proteins (as indicated on the left of the photographs) are expressed as kilodaltons (kDa).
FIG. 5D is a pair of photographs of immunoblots. GST and the indicated GST-IKKγ fusion proteins bound to glutathione beads were incubated with MUC1-CD. The precipitates were immunoblotted (IB) with anti-MUC1-C antibody. Commassie blue staining of the gel was performed to confirm that equal amounts of GST- and GST-IKKγ proteins were used in the experiment. The molecular weights of proteins (as indicated on the left of the photographs) are expressed as kilodaltons (kDa).
FIG. 11B is a pair of photographs of an immunoblot and Coomassie blue stained gel. GST and the indicated GST-MUC1-CD fusion proteins (MUC1-CD and MUC1-CD(mSRM)) bound to glutathione beads were incubated with IKKγ. The precipitates were immunoblotted (IB) with an anti-IKKγ antibody. Commassie blue staining of the gel was performed to confirm that equal amounts of GST- and GST-MUC1-CD proteins were used in the experiment. The molecular weights of proteins (as indicated on the left of the photographs) are expressed as kilodaltons (kDa).
In vitro binding assays. Purified GST-MUC1-CD (glutathione s-transferase fused to the MUC1-CD polypeptide) was cleaved with thrombin to remove the GST moiety. GST, GST-IKKβ (DiDonato et al. (1997) Nature 388:548-554), GST-IKKβ (1-458), GST-IKKβ (458-756), GST-IKKγ (Prajapati et al. (2002) J. Biol. Chem. 277:24331-24339), GST-IKKγ (1-196) or GST-IKKγ (197-419) were then incubated with the MUC1-CD for 1 hour at 25° C. In other experiments, GST, GST-MUC1-CD, GST-MUC1-CD(1-45) or GST-MUC1-CD(46-72) were incubated with purified IKKβ or IKKγ. Adsorbates to glutathione-conjugated beads were analyzed by immunoblotting.

MUC1-CD: 72 amino acid cytoplasmic domain of human MUC1, SEQ ID NO:2
binding to IKKγ (GST pull-down with purified proteins, immunoblot): binds to purified IKKγ
region of IKKγ bound by MUC1-CD (GST-IKKγ (1-196) and GST-IKKγ (197-419) incubated with MUC1-CD): binds to the C-terminal region (197-419) of IKKγ
